# Results: patent US20180273635A1 (Zymeworks, published 2018)
# Numbering of substitutions follows the chain as printed. Names may count otherwise.
# B1: variant 12497 (antibody, human IgG1, kappa)
# heavy: EVQLVESGGGLVQPGGSLRLSCAASGFTFTDYTMDWVRQAPGKGLEWVADVNPNSGGSIYNRRFKGRFTLSVDRSKNTLYLQMNSLRAEDTAVYYCARNLGPSFYFDYWGQGTLVTVSSASTKGPSVFPLAPSSKSTSGGTAALGCLVKDYFPEPVTVSWNSGALTSGVHTFPAVLQSSGLYSLSSVVTVPSSSLGTQTYICNVNHKPSNTKVDKKVEPKSCDKTHTCPPCPAPELLGGPSVFLFPPKPKDTLMISRTPEVTCVVVDVSHEDPEVKFNWYVDGVEVHNAKTKPREEQYNSTYRVVSVLTVLHQDWLNGKEYKCKVSNKALPAPIEKTISKAKGQPREPQVYVYPPSRDELTKNQVSLTCLVKGFYPSDIAVEWESNGQPENNYKTTPPVLDSDGSFALVSKLTVDKSRWQQGNVFSCSVMHEALHNHYTQKSLSLSPG
# light: not shown
# chain: not shown
# notes: OA pertuzumab variant, HC Q61R (Kabat); also called v12497
# B2: Variant 12505 (antibody, human IgG1, kappa)
# heavy: B1 heavy with R62Q, K76E
# light: not shown
# chain: not shown
# notes: OA (one-armed) format; clones 7843, 1811, 4372; also called v12505
# B3: Variant 12514 (antibody, human IgG1, kappa)
# heavy: B1 heavy with R62Q, S103W
# light: not shown
# chain: not shown
# notes: OA (one-armed) format; clones 7852, 1811, 4372; also called v12514
# B4: variant 12504 (antibody, human IgG1, kappa)
# heavy: B1 heavy with R62Q, S75A
# light: not shown
# chain: not shown
# notes: OA pertuzumab variant, HC S74A (Kabat); also called v12504
# B5: Variant 12610 (antibody, human IgG1, kappa)
# heavy: B1 heavy with T30A, R62Q
# light: not shown
# chain: not shown
# notes: OA (one-armed) format; clones 3376, 1811, 4372; also called v12610
# B6: Variant 12479 (antibody, human IgG1, kappa)
# heavy: B1 heavy with T30N, R62Q
# light: not shown
# chain: not shown
# notes: OA (one-armed) format; clones 7814, 1811, 4372; also called v12479
# B7: Variant 12506 (antibody, human IgG1, kappa)
# heavy: B1 heavy with R62Q, K76W
# light: not shown
# chain: not shown
# notes: OA (one-armed) format; clones 7844, 1811, 4372; also called v12506
# B8: variant 12514 (antibody, human IgG1, kappa)
# heavy: B1 heavy with R62Q, S103W
# light: not shown
# chain: not shown
# notes: OA pertuzumab variant, HC S99W (Kabat); also called v12514
# B9: variant 12506 (antibody, human IgG1, kappa)
# heavy: B1 heavy with R62Q, K76W
# light: not shown
# chain: not shown
# notes: OA pertuzumab variant, HC K75W (Kabat); also called v12506
# B10: Variant 12538 (antibody, human IgG1, kappa)
# heavy: B1 heavy with R62Q
# light: not shown
# chain: not shown
# notes: OA (one-armed) format; clones 3057, 7919, 4372; also called v12538
# B11: Variant 12536 (antibody, human IgG1, kappa)
# heavy: B1 heavy with R62Q
# light: not shown
# chain: not shown
# notes: OA (one-armed) format; clones 3057, 7917, 4372; also called v12536
# B12: Variant 12482 (antibody, human IgG1, kappa)
# heavy: B1 heavy with T30F, R62Q
# light: not shown
# chain: not shown
# notes: OA (one-armed) format; clones 7817, 1811, 4372; also called v12482
# B13: Variant 12502 (antibody, human IgG1, kappa)
# heavy: B1 heavy with R62Q, S75W
# light: not shown
# chain: not shown
# notes: OA (one-armed) format; clones 7840, 1811, 4372; also called v12502
# B14: variant 12502 (antibody, human IgG1, kappa)
# heavy: B1 heavy with R62Q, S75W
# light: not shown
# chain: not shown
# notes: OA pertuzumab variant, HC S74W (Kabat); also called v12502
# B15: Variant 12491 (antibody, human IgG1, kappa)
# heavy: B1 heavy with G57F, R62Q
# light: not shown
# chain: not shown
# notes: OA (one-armed) format; clones 7826, 1811, 4372; also called v12491
# B16: variant 12540 (antibody, human IgG1, kappa)
# heavy: B1 heavy with R62Q
# light: not shown
# chain: not shown
# notes: OA pertuzumab variant, LC Y96V (Kabat); also called v12540
# B17: Variant 12478 (antibody, human IgG1, kappa)
# heavy: B1 heavy with T30Y, R62Q
# light: not shown
# chain: not shown
# notes: OA (one-armed) format; clones 7813, 1811, 4372; also called v12478
# B18: Variant 12480 (antibody, human IgG1, kappa)
# heavy: B1 heavy with T30Q, R62Q
# light: not shown
# chain: not shown
# notes: OA (one-armed) format; clones 7815, 1811, 4372; also called v12480
# B19: Variant 12490 (antibody, human IgG1, kappa)
# heavy: B1 heavy with G57Y, R62Q
# light: not shown
# chain: not shown
# notes: OA (one-armed) format; clones 7825, 1811, 4372; also called v12490
# B20: variant 12503 (antibody, human IgG1, kappa)
# heavy: B1 heavy with R62Q, S75H
# light: not shown
# chain: not shown
# notes: OA pertuzumab variant, HC S74H (Kabat); also called v12503
# B21: variant 12536 (antibody, human IgG1, kappa)
# heavy: B1 heavy with R62Q
# light: not shown
# chain: not shown
# notes: OA pertuzumab variant, LC Y96G (Kabat); also called v12536
# B22: variant 12505 (antibody, human IgG1, kappa)
# heavy: B1 heavy with R62Q, K76E
# light: not shown
# chain: not shown
# notes: OA pertuzumab variant, HC K75E (Kabat); also called v12505
# B23: variant 12538 (antibody, human IgG1, kappa)
# heavy: B1 heavy with R62Q
# light: not shown
# chain: not shown
# notes: OA pertuzumab variant, LC Y49W (Kabat); also called v12538
# B24: variant 12520 (antibody, human IgG1, kappa)
# heavy: B1 heavy with T30R, G57Y, R62Q
# light: not shown
# chain: not shown
# notes: also called v12520
# Tests used:
# Recombinant human HER2 [1] = biological target: T1, Recombinant human HER2 (human, UniProt P04626 23-652); assay: SPR, variant captured on anti-human Fc, HER2 flowed, 25 C, pre-SEC;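 further: HER2 extracellular domain binding on Biacore T200, CM5 chip with amine-coupled anti-human Fc, duplicate antigen dilutions, global 1:1 Langmuir fit, measured after protein A purification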
# T1 construct: extracellular domain; analyte of the SPR assays; also called HER2 ECD; ECD2 of HER2
# Recombinant human HER2 [2] = biological target: T1, Recombinant human HER2; assay: SPR, pre-SEC; ratio to WT v10013;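 further: SPR on Biacore T200 at 25 °C, constructs captured via anti-human Fc on CM5 chip, HER2 ECD as analyte, 1:1 Langmuir global fit, after protein A purification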
# Experimental: (§1) The affinity towards HER2 ECD of the samples was measured by SPR on a Biacore T200 as follows. Between 2000 and 4000 RU of anti-human Fc injected at concentration between 5 and 10 μg/ml was immobilized on a CM5 chip using standard amine coupling. Antigen-binding constructs were captured on the anti-human Fc (injected at concentration at 0.51 microg/mL in PBST, 1 min at 10 microl/min) at response levels ranging from 120-270 RU. […] HER2 dilutions were analyzed in duplicates. Sensograms were fit globally to a 1: 1 Langmuir binding model, using the software provided with the Biacore T200. All experiments were conducted at 25° C.
# (§2) The affinity of antigen-binding constructs in OA format was determined by SPR following protein A purification. […] Antigen-binding constructs in FSA format were purified by protein A affinity and SEC prior to assessment of affinity by SPR.
# Recombinant human HER2 [3] = biological target: T1, Recombinant human HER2; assay: SPR, variant captured on anti-human Fc, HER2 flowed, 25 C, post-SEC
# Experimental: as §1, §2
# Recombinant human HER2 [4] = biological target: T1, Recombinant human HER2; assay: SPR, post-SEC; ratio to WT v10013
# Experimental: as §1, §2
# Recombinant human HER2 [5] = biological target: T2, Recombinant human HER2 (human, UniProt P04626 23-652); assay: SPR post-SEC (value taken over from Table 5); Ka ratio to WT v10013
# T2 construct: extracellular domain; Analyte of the SPR assays; also called HER2 ECD; ECD2 of HER2
# Experimental: as §1, §2
# Recombinant human HER2 [6] = biological target: T2, Recombinant human HER2; assay: calculated from the SPR Ka ratio to WT, -RTln(Ka,mut/Ka,WT), 298 K
Binder,Kd (Recombinant human HER2 [1]) [nM],"Ka, mut/Ka, WT (Recombinant human HER2 [2])",Kd (Recombinant human HER2 [3]) [nM],"Ka, mut/Ka, WT (Recombinant human HER2 [4])","Ka, mut/Ka, WT (Recombinant human HER2 [5]) [fold]",ΔΔG (Recombinant human HER2 [6]) [kcal/mol]
B1,14,1.4,13,1.6,,
B2,,,,,3.7,-0.8
B3,,,,,4.5,-0.9
B4,18,1.1,27,0.8,,
B5,,,,,4.5,-0.9
B6,,,,,4.7,-0.9
B7,,,,,30.6,-2
B8,3.4,5.8,4.6,4.5,,
B9,0.64,30.6,0.68,30.6,,
B10,,,,,4.8,-0.9
B11,,,,,4,-0.8
B12,,,,,2.9,-0.6
B13,,,,,5.3,-1
B14,2.4,8.2,3.9,5.3,,
B15,,,,,2.1,-0.4
B16,12,1.6,11,1.9,,
B17,,,,,3.6,-0.8
B18,,,,,4.7,-0.9
B19,,,,,2.7,-0.6
B20,15,1.3,25,0.8,,
B21,4.8,4.1,5.2,4,,
B22,4.6,4.2,5.7,3.7,,
B23,4.7,4.2,4.4,4.8,,
B24,5.4,3.6,6.6,3.1,,
